The target of test [1] is Porcine gastric mucin (PGM) (porcine). The test can be described thus: ITC; ITC-200 at 37 °C, pH 7.4; PGM solution (40 μM) in the 200 μL cell, KTN or KOS solution (1% w/v) in the syringe. For orientation: In ITC the heat of successive injections is recorded.
For test [2] the target is unchanged. Described as above. This is another data set of the same source.
Test [3] has the same target. The test can be described thus: ITC; ITC-200 at 37 °C, pH 4.5; PGM solution (40 μM) in the 200 μL cell, KTN or KOS solution (1% w/v) in the syringe.
For test [4] the target is unchanged. In words: ITC; ITC-200 at 37 °C, pH 7.4; PGM solution (40 μM) in the 200 μL cell, KTN or KOS solution (1% w/v) in the syringe. The source holds these as a separate data set.

Consider keratose (oxidized keratin, KOS), for which the dH in test [1] is 61.1 kcal/mol; in test [2] it was -61.1 kcal/mol; in test [3] it was -4.25 kcal/mol. For the same substance, the Ka in test [2] came to 4140 M⁻¹; in test [3], 15500 M⁻¹; in test [4], 41400 M⁻¹. Also, the stoichiometry N (as a rule, a count of units in the complex or per binding partner) in test [2] was determined as 1.27; in test [3], 1.15.
For the substance kerateine (reduced keratin, KTN), in test [2], the Ka came to 10700 M⁻¹, the dH is -3.47 kcal/mol and the stoichiometry N was determined as 1.5. Also, in test [3], the Ka is 398000 M⁻¹, the dH was -2.41 kcal/mol and the stoichiometry N was 1.23.

For the origin of these results see paper PMC5858146.
